According to publication PMC9482650, “Quantitative fragmentomics allow affinity mapping of interactomes” (Nature Communications, 2022):

Key:
Assay in all cases: holdup assay
Set-up in all cases: key: below the threshold = too weak to quantify, mostly under pKd 3.1 to 4
[1] = target: GRIP2_3, Q9C0E4
[2] = target: DLG2_3, Q15700
[3] = target: DLG1_3, Q12959
[4] = target: T1, RAPGEF6, Q8TEU7
T1 sequence (Q8TEU7 525-625, limits assumed, looked up): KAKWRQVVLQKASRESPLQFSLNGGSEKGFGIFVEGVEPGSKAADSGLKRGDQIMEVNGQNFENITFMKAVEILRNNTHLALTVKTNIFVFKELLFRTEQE

[5] = target: T2, PDZD7_3, Q9H5P4
T2 sequence (Q9H5P4 857-944, limits assumed, looked up): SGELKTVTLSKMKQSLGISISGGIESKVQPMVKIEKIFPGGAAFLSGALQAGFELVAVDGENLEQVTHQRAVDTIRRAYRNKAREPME

[6] = target: DLG1_2, Q12959
Sequence of DLG1_2, Q12959 (Q12959 314-412): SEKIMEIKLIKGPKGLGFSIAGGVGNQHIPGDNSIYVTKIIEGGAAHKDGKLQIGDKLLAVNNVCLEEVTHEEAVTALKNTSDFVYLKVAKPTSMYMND

[7] = target: T3, ARHGAP21, Q5T5U3
T3 sequence (Q5T5U3 45-169, limits assumed, looked up): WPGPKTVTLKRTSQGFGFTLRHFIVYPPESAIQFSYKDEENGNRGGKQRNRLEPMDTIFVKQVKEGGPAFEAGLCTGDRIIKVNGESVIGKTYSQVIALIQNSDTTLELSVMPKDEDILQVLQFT

[8] = target: Inadl_10, Q8NI35
Sequence of Inadl_10, Q8NI35 (Q8NI35 1673-1763): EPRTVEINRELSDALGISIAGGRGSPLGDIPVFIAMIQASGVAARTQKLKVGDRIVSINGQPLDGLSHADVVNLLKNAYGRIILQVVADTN

[9] = target: T4, MPDZ_5, O75970
T4 sequence (O75970 695-796, limits assumed, looked up): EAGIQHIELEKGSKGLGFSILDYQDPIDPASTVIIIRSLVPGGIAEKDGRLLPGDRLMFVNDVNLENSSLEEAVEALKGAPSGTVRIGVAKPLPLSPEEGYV

[10] = target: GRID2IP_1, A4D2P6
Sequence of GRID2IP_1, A4D2P6 (A4D2P6 1-87): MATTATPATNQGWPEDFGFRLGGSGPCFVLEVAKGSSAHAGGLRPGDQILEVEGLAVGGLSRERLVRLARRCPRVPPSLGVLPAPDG

[11] = target: DLG2_2, Q15700
[12] = target: T5, LIN7A, O14910
T5 sequence (O14910 103-200, limits assumed, looked up): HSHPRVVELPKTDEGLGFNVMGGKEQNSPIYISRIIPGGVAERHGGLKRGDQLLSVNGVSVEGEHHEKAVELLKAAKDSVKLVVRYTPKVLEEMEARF

[13] = target: GRIP2_7, Q9C0E4
Sequence of GRIP2_7, Q9C0E4 (Q9C0E4 934-1023): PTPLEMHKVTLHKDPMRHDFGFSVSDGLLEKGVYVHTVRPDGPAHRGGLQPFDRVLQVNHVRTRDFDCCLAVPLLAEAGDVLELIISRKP

[14] = target: T6, PTPN13_1, Q12923
T6 sequence (Q12923 1088-1188, limits assumed, looked up): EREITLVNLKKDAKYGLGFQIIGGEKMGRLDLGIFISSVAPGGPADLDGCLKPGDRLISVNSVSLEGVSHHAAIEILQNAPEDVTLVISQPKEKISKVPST

[15] = target: GOPC, Q9HD26
[16] = target: T7, LRRC7, Q96NW7
T7 sequence (Q96NW7 1440-1537, limits assumed, looked up): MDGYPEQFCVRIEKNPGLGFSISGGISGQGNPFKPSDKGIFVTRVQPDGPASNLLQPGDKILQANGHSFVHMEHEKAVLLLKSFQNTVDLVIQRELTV

[17] = target: DLG4_3, P78352
Sequence of DLG4_3, P78352 (P78352 306-403): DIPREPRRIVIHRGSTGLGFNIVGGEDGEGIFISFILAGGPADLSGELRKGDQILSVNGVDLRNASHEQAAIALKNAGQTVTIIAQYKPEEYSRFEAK

[18] = target: HTRA1, Q92743
Sequence of HTRA1, Q92743 (Q92743 360-477): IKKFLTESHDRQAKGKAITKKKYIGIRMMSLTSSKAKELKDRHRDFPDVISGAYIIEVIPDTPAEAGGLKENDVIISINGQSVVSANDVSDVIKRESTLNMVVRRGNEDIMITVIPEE

[19] = target: T8, PCLO, Q9Y6V0
T8 sequence (Q9Y6V0 4491-4600, limits assumed, looked up): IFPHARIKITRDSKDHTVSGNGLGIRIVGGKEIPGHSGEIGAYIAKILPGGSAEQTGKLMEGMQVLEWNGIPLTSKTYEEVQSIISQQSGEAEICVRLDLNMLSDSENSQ

[20] = target: T9, SYNJ2BP, P57105
T9 sequence (P57105 8-110, limits assumed, looked up): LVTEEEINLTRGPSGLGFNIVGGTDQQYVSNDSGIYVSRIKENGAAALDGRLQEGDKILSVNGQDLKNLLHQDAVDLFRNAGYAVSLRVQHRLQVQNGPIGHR

[21] = target: T10, PARD3B_1, Q8TEW8
T10 sequence (Q8TEW8 196-299, limits assumed, looked up): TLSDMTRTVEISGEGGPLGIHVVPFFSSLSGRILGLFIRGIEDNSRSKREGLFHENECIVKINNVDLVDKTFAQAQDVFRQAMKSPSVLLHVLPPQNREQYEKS

[22] = target: FRMPD2_2, Q68DX3
Sequence of FRMPD2_2, Q68DX3 (Q68DX3 944-1038): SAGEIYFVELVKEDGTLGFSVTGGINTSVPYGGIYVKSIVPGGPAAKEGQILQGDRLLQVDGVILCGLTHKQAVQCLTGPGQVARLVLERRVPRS

[23] = target: T11, SIPA1L2, Q9P2F8
T11 sequence (Q9P2F8 945-1036, limits assumed, looked up): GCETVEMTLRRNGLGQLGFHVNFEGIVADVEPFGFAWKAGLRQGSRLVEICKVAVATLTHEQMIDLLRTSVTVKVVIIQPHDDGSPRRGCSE

[24] = target: GIPC2, Q8TF65
Sequence of GIPC2, Q8TF65 (Q8TF65 112-203): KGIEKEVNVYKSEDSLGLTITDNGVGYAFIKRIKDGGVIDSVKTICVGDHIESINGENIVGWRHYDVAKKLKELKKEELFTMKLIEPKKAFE

[25] = target: T12, SNTB1, Q13884
T12 sequence (Q13884 107-205, limits assumed, looked up): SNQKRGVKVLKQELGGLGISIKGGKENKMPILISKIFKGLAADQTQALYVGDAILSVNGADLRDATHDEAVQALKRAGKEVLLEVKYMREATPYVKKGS

[26] = plain residues with an end cap or a label only (N-terminal biotin on a linker: ahx)
[27] = plain residues with an end cap or a label only (N-terminal biotin on a linker: none)
[28] = plain residues with an end cap or a label only (N-terminal biotin on a linker: gsgsgs; C-terminal amide)

Measured: pKd

Sequence of DLG1_3, Q12959 (Q12959 457-571): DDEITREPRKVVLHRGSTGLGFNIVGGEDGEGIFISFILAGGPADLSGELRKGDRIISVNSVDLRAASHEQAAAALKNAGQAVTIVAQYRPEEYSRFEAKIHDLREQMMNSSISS
Sequence of GRIP2_3, Q9C0E4 (Q9C0E4 238-339): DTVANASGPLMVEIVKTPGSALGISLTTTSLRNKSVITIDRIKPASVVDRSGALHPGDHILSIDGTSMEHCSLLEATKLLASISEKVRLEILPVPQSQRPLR

TVICWPGSLV [LNX2, Q8N448]
4.03: [8]; [26] | [9]; [26]
3.58: [17]; [26]
4.33: [15]; [26]
3.85: [22]; [26]
3.99: [21]; [26]
4.35: [12]; [26]
4.5: [5]; [26]
4.1: [25]; [26]
3.9: [11]; [26]
4.32: [3]; [26]
5.53: [20]; [26]
4.24: [2]; [26]
below the threshold: [1]; [26] | [4]; [26] | [7]; [26] | [10]; [26] | [13]; [26] | [14]; [26] | [16]; [26] | [19]; [26] | [23]; [26] | [24]; [26]
4.94: [18]; [26]
4.27: [6]; [26]

NLNSSRVPDLLV [SARS-CoV2-E, P0DTC4]
4.32: [18]; [27]
below the threshold: [1]; [27] | [2]; [27] | [3]; [27] | [4]; [27] | [5]; [27] | [6]; [27] | [7]; [27] | [8]; [27] | [9]; [27] | [10]; [27] | [11]; [27] | [12]; [27] | [13]; [27] | [14]; [27] | [15]; [27] | [16]; [27] | [17]; [27] | [19]; [27] | [20]; [27] | [21]; [27] | [22]; [27] | [23]; [27] | [24]; [27] | [25]; [27]

VSVDDVRSTSQGLSSY [DFNB31_int, Q9P202]
below the threshold: [1]; [28] | [3]; [28] | [4]; [28] | [6]; [28] | [7]; [28] | [8]; [28] | [9]; [28] | [10]; [28] | [11]; [28] | [12]; [28] | [13]; [28] | [14]; [28] | [15]; [28] | [16]; [28] | [17]; [28] | [18]; [28] | [19]; [28] | [20]; [28] | [21]; [28] | [22]; [28] | [23]; [28] | [24]; [28] | [25]; [28]
3.55: [2]; [28]
3.8: [5]; [28]
